According to patent publication US20140120095A1:
One block for each binder: values may come before it.

What was measured:
Experiment in all cases: cell-based or functional assay
VEGF = VEGF (UniProt P15692)
[1] = biological target: VEGF (used to stimulate HUVEC cells) (UniProt P15692)
[2] = biological target: DII4-His (C-terminal His-tagged human DII4, amino acid 27-524) (human) (UniProt Q9NR61)
Sequence of DII4-His (C-terminal His-tagged human DII4, amino acid 27-524) (human) (Q9NR61 25-522): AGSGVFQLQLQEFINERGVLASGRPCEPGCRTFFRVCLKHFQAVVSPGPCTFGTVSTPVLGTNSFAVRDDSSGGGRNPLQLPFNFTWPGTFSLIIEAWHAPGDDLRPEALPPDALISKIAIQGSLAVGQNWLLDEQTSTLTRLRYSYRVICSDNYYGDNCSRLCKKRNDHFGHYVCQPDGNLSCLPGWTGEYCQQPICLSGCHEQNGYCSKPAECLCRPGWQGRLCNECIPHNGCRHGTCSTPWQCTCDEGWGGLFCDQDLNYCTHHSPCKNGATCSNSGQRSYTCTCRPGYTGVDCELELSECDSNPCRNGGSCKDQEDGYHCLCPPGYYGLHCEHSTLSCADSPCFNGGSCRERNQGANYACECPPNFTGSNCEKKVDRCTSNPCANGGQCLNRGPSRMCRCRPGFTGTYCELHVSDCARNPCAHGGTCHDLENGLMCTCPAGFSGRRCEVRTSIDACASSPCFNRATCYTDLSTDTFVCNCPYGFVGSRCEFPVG

Sequence of VEGF (P15692 other isoform, or with tags, fused parts or gaps limits assumed): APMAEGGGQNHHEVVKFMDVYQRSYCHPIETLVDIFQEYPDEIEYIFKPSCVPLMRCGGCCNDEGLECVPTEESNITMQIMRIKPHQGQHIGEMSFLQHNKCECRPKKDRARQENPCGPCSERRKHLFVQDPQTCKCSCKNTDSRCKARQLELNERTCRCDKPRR
Sequence of VEGF (used to stimulate HUVEC cells) (P15692 other isoform, or with tags, fused parts or gaps limits assumed): as above

% inhibition, VEGF HUVEC Erk phosphorylation assay, +HSA (VEGF): 93%
% inhibition, VEGF HUVEC Erk phosphorylation assay, -HSA (VEGF): 91%
IC50 (nM), VEGF HUVEC Erk phosphorylation assay, +HSA (VEGF): 0.6 nM
IC50 (nM), VEGF HUVEC Erk phosphorylation assay, -HSA (VEGF): 0.69 nM
B1: VEGFBII23B04 (VHH, not shown: small tags and cut ends)
VHH: EVQLVESGGGLVQTGDSLRLSCEVSGRTFSSYSMGWFRQAQGKEREFVVAISKGGYKYDSVSLEGRFTISKDNAKNTVYLQINSLKPEDTAVYYCASSRAYGSSRLRLADTYEYWGQGTQVTVSS

% inhibition, VEGF HUVEC proliferation assay [1]: 73%
IC50, VEGF HUVEC proliferation assay [1]: 4.29 nM
B2: VEGFBII23A06 (VHH, not shown: small tags and cut ends)
VHH: EVQLVESGGGLVQPGDSLKLSCAFSGRTFSSYSMGWFRQAQGKEREFVVAISSGGFIYDAVSLEGRFTISRDNTKNTVYLQTPSLKPEDTAVYYCAASRAYGSSRLRLADTYDYWGQGTQVTVSS

IC50 (nM), DII4-mediated HUVEC proliferation assay, +HSA [2]: 3.52 nM
IC50 (nM), DII4-mediated HUVEC proliferation assay, -HSA [2]: 2.32 nM
B3: DLLBII129B05 (VHH, not shown: small tags and cut ends)
VHH: EVQLVESGGGLVQAGGSLRLSCAASGRTFSSYAMAWYRQAPGKEREYVAAIRWSGGTAYYADSVQGRFTISRDNAKNTVYLQMNSLKPEDTAVYYCANRAPDTRLAPYEYDHWGQGTQVTVSS
